Assay results as given in patent publication US20150284743A1, “METHODS FOR THE ENZYMATIC PRODUCTION OF ISOPRENE FROM ISOPRENOL” (GLOBAL BIOENERGIES, priority 2012, published 2015).

Experiments:
[1] = substrate: C=C(C)CCO; assay: Isoprenol phosphorylation, pyruvate kinase/lactate dehydrogenase coupled assay (ADP release), E. coli kinase; assay type: biochemical, Escherichia coli; settings: other: isoprenol 0-40 mM, 5 mM ATP, pH 7.5, 37° C., enzyme 0.025 mg/ml
Procedure: (§1) The genes encoding the enzymes of interest were cloned in the pET 25b(+) vector (Novagen). Nucleotide sequences encoding a chloroplast transit peptide in plant terpene synthases were removed, resulting in DNA sequences encoding the mature proteins only. […] Competent E. coli BL21(DE3) cells (Novagen) were transformed with this vector by heat shock. The transformed cells were grown with shaking (160 rpm) on ZYM-5052 auto-induction medium (Studier FW, Prot. Exp. Pur. 41, (2005), 207-234) for 6 h at 37° C. and protein expression was continued at 28° C. or 20° C. overnight (approximately 16 h). The cells were collected by centrifugation at 4° C., 10,000 rpm for 20 min and the pellets were frozen at −80° C.
(§2) The pellets from 200 ml of culture cells were thawed on ice and resuspended in 5 ml of Na2HPO4 pH 8 containing 300 mM NaCl, 5 mM MgCl2 and 1 mM DTT. Twenty microliters of lysonase (Novagen) were added. Cells were incubated 10 minutes at room temperature and then returned to ice for 20 minutes. Cell lysis was completed by sonication for 3×15 seconds. The bacterial extracts were then clarified by centrifugation at 4° C., 10,000 rpm for 20 min. The clarified bacterial lysates were loaded on PROTINO-1000 Ni-TED column (Macherey-Nagel) allowing adsorption of 6-His tagged proteins. Columns were washed and the enzymes of interest were eluted with 4 ml of 50 mM Na2HPO4 pH 8 containing 300 mM NaCl, 5 mM MgCl2, 1 mM DTT, 250 mM imidazole. […] Protein concentrations were quantified according to the Bradford method. […]
(§3) The release of ADP that is associated with isoprenol phosphorylation was quantified using the pyruvate kinase/lactate dehydrogenase coupled assay (FIG. 4). The purified 4-methyl-5-(2-hydroxyethyl)thiazole kinases from Escherichia coli, Bacillus subtilis, Rhizobium leguminosarum were thus evaluated for their ability to phosphorylate isoprenol. […]
(§4) Each assay was started by the addition of the enzyme at a final concentration 0.025 mg/ml and the decrease of NADH was monitored by following its absorbance at 340 nm. […]

[2] = substrate: CC(C)=CCO; assay: Prenol phosphorylation, pyruvate kinase/lactate dehydrogenase coupled assay (ADP release), E. coli kinase; assay type: biochemical, Escherichia coli; settings: other: prenol, 5 mM ATP, pH 7.5, 37° C., enzyme 0.5 mg/ml
Procedure: as §1, §2
(§5) The purified 4-methyl-5-(2-hydroxyethyl) thiazole kinases from Escherichia coli, Bacillus subtilis, Rhizobium leguminosarum were evaluated for their ability to phosphorylate prenol. The release of ADP associated to prenol phosphorylation was quantified using the pyruvate kinase/lactate dehydrogenase coupled assay (FIG. 4). […]
(§6) Each assay was started by the addition of the enzyme at a final concentration 0.5 mg/ml and the decrease of NADH was monitored by following its absorbance at 340 nm. […]

[3] = substrate: C=C(C)CCO; assay: Isoprenol phosphorylation, pyruvate kinase/lactate dehydrogenase coupled assay (ADP release), B. subtilis kinase; assay type: biochemical, Bacillus subtilis; settings: other: isoprenol 0-40 mM, 5 mM ATP, pH 7.5, 37° C., enzyme 0.025 mg/ml
Procedure: as §1, §2, §3, §4

[4] = substrate: CC(C)=CCO; assay: Prenol phosphorylation, pyruvate kinase/lactate dehydrogenase coupled assay (ADP release), B. subtilis kinase; assay type: biochemical, Bacillus subtilis; settings: other: prenol, 5 mM ATP, pH 7.5, 37° C., enzyme 0.5 mg/ml
Procedure: as §1, §2, §5, §6

[5] = Screening for isoprene production from isoprenyl monophosphate with purified terpene synthases; assay type: biochemical; settings: 10 mM isoprenyl monophosphate, 37° C., 17 h, GC-FID / GC-MS of headspace
Procedure: The enzymatic assays were carried out under the following conditions at 37° C.:
10 mM isoprenyl monophosphate (Sigma)
2.5 mg of the terpene synthase was added to 0.5 ml of reaction mixture. An enzyme-free control reaction was carried out in parallel. Assays were incubated at 37° C. for 17 h in a 1.5 ml sealed glass vial (Interchim) with shaking. One ml of the headspace phase was then collected and injected into a gas chromatograph Varian 430-GC chromatograph equipped with a flame ionization detector (FID). Nitrogen was used as carrier gas with a flow rate of 30 mL/min. Volatile compounds were chromatographically separated on Rtx-1 column (Restek) using an isothermal mode at 100° C. The enzymatic reaction product was identified by direct comparison with isoprene standard (Sigma). Under these GC conditions, the retention time for isoprene was 3.47 min. […] Gas chromatography-mass spectrometry (GC-MS) was then used to confirm the identity of the product detected by gas chromatography with flame ionization. The samples were analyzed on a Varian 3400Cx gas chromatograph equipped with Varian Saturn 3 mass selective detector. A mass spectrum of isoprene obtained by enzymatic conversion of isoprenyl monophosphate was similar to the one of commercial isoprene (FIG. 8).

[6] = substrate: C=C(C)CCO; assay: Isoprenol phosphorylation, pyruvate kinase/lactate dehydrogenase coupled assay (ADP release), R. leguminosarum kinase; assay type: biochemical, Rhizobium leguminosarum; settings: other: isoprenol 0-40 mM, 5 mM ATP, pH 7.5, 37° C., enzyme 0.025 mg/ml
Procedure: as §1, §2, §3, §4

[7] = substrate: CC(C)=CCO; assay: Prenol phosphorylation, pyruvate kinase/lactate dehydrogenase coupled assay (ADP release), R. leguminosarum kinase; assay type: biochemical, Rhizobium leguminosarum; settings: other: prenol, 5 mM ATP, pH 7.5, 37° C., enzyme 0.5 mg/ml
Procedure: as §1, §2, §5, §6

[8] = substrate: CC(C)=CCOP(=O)(O)O; assay: purified protein, by the assay type; settings: other: prenyl monophosphate 0-150 mM, pH 7.5, 20 mM MgCl2, 37° C., 18 h, enzyme 2 mg/ml
[9] = substrate: C=C(C)CCOP(=O)(O)O; assay: Isoprene production from isoprenyl monophosphate, GC/FID; assay type: biochemical, Eucalyptus globulus; settings: other: isoprenyl monophosphate 0-150 mM, pH 7.5, 20 mM MgCl2, 37° C., 18 h, enzyme 4 mg/ml
Procedure: as §1
The pellets from 200 ml of culture cells were thawed on ice and resuspended in 5 ml of Na2HPO4 pH 8 containing 300 mM NaCl, 5 mM MgCl2 and 1 mM DTT. […] Protein concentrations were quantified according to the Bradford method. […]
2.5 mg of the terpene synthase was added to 0.5 ml of reaction mixture. […] Gas chromatography-mass spectrometry (GC-MS) was then used to confirm the identity of the product detected by gas chromatography with flame ionization. The samples were analyzed on a Varian 3400Cx gas chromatograph equipped with Varian Saturn 3 mass selective detector. […]
Kinetic parameters of isoprene production were evaluated in the following conditions: […]

B1: Escherichia coli 4-methyl-5-(2-hydroxyethyl)thiazole kinase (hydroxyethylthiazole kinase, EC 2.7.1.50) (Escherichia coli K-12) (protein)
chain: MQVDLLGSAQSAHALHLFHQHSPLVHCMTNDVVQTFTANTLLALGASPAMVIETEEASQFAAIASALLINVGTLTQPRAQAMRAAVEQAKSSQTPWTLDPVAVGALDYRRHFCHELLSFKPAAIRGNASEIMALAGIANGGRGVDTTDAAANAIPAAQTLARETGAIVVVTGEMDYVTDGHRIIGIHGGDPLMTKVVGTGCALSAVVAACCALPGDTLENVASACHWMKQAGERAVARSEGPGSFVPHFLDALWQLTQEVQA
[1]
  Km: 7.5 mM
  kcat: 1 s⁻¹
  kcat/Km: 130 M⁻¹ s⁻¹
[2]
  Km: 3 mM
  kcat: 0.05 s⁻¹
  kcat/Km: 16 M⁻¹ s⁻¹

B2: Bacillus subtilis 4-methyl-5-(2-hydroxyethyl)thiazole kinase (hydroxyethylthiazole kinase, EC 2.7.1.50) (Bacillus subtilis subsp. subtilis str. 168) (protein)
chain: MDAQSAAKCLTAVRRHSPLVHSITNNVVTNFTANGLLALGASPVMAYAKEEVADMAKIAGALVLNIGTLSKESVEAMIIAGKSANEHGVPVILDPVGAGATPFRTESARDIIREVRLAAIRGNAAEIAHTVGVTDWLIKGVDAGEGGGDIIRLAQQAAQKLNTVIAITGEVDVIADTSHVYTLHNGHKLLTKVTGAGCLLTSVVGAFCAVEENPLFAAIAAISSYGVAAQLAAQQTADKGPGSFQIELLNKLSTVTEQDVQEWATIERVTVS
notes: homotrimer
[3]
  Km: 3 mM
  kcat: 0.03 s⁻¹
  kcat/Km: 10 M⁻¹ s⁻¹
[4]
  Km: 3 mM
  kcat: 0.006 s⁻¹
  kcat/Km: 2 M⁻¹ s⁻¹

B3: monoterpene synthase from E. globulus: purified monoterpene synthase of Eucalyptus globulus (UniProt Q0PCI4, SEQ ID NO: 6) (protein, listed as Eucalyptus globulus)
chain: MALRLLFTPHLPVLSSRRANGRVRCSASTQISDPQEGRRSANYQPSVWTYNYLQSIVAGEGRQSRREVEQQKEKVQILEEEVRGALNDEKAETFTIFATVDDIQRLGLGDHFEEDISNALRRCVSKGAVFMSLQKSLHGTALGFRLLRQHGYEVSQDVFKIFLDESGSFVKTLGGDVQGVLSLYEASHLAFEEEDILHKARSFAIKHLENLNSDVDKDLQDQVKHELELPLHRRMPLLEARRSIEAYSRREYTNPQILELALTDFNVSQSTLQRDLQEMLGWWNNTGLAKRLSFARDRLIECFFWAVGIAHEPSLSICRKAVTKAFALILVLDDVYDVFGTLEELELFTEAVRRWDLNAVEDLPVYMKLCYLALYNSVNEMAYETLKEKGENVIPYLAKAWYDLCKAFLQEAKWSNSRIIPGVEEYLNNGWVSSSGSVMLIHAYFLASPSIRKEELESLEHYHDLLRLPSLIFRLTNDIASSSAELERGETTNSIRCFMQEKGISELEARECVKEEIDTAWKKMNKYMVDRSTFNQSFVRMTYNLARMAHCVYQDGDAIGSPDDLSWNRVHSLIIKPISPAA
[5]
  Isoprene production from isoprenyl monophosphate: isoprene produced

B4: Rhizobium leguminosarum 4-methyl-5-(2-hydroxyethyl)thiazole kinase (hydroxyethylthiazole kinase, EC 2.7.1.50) (Rhizobium johnstonii 3841) (protein)
chain: MQTRTTPGAMLKAMREKPPLVQCITNYVAMNIAANVLLAAGASPAMVHAAEEAGEFAAIASALTINIGTLSTQWIDGMQAAAKAATSAGKPWVLDPVAHYATAFRRNAVAELLALKPTIIRGNASEIIALAGGESRGQGVDSRDPVEQAEGSARWLAERQRAVVAVTGAVDFVTDGERAVRIEGGSALMPQVTALGCSLTCLVGAFAATAPEDIFGATVAALSTFAIAGEEAALGAAGPGSFSWRFLDALAALDAETLDARARISAA
[6]
  Km: 10 mM
  kcat: 0.8 s⁻¹
  kcat/Km: 80 M⁻¹ s⁻¹
[7]
  Km: 10 mM
  kcat: 0.01 s⁻¹
  kcat/Km: 1 M⁻¹ s⁻¹

B5: Eucalyptus globulus monoterpene synthase (UniProt Q0PCI4), SEQ ID NO: 6 (Eucalyptus globulus) (protein)
chain: ASTQISDPQEGRRSANYQPSVWTYNYLQSIVAGEGRQSRREVEQQKEKVQILEEEVRGALNDEKAETFTIFATVDDIQRLGLGDHFEEDISNALRRCVSKGAVFMSLQKSLHGTALGFRLLRQHGYEVSQDVFKIFLDESGSFVKTLGGDVQGVLSLYEASHLAFEEEDILHKARSFAIKHLENLNSDVDKDLQDQVKHELELPLHRRMPLLEARRSIEAYSRREYTNPQILELALTDFNVSQSTLQRDLQEMLGWWNNTGLAKRLSFARDRLIECFFWAVGIAHEPSLSICRKAVTKAFALILVLDDVYDVFGTLEELELFTEAVRRWDLNAVEDLPVYMKLCYLALYNSVNEMAYETLKEKGENVIPYLAKAWYDLCKAFLQEAKWSNSRIIPGVEEYLNNGWVSSSGSVMLIHAYFLASPSIRKEELESLEHYHDLLRLPSLIFRLTNDIASSSAELERGETTNSIRCFMQEKGISELEARECVKEEIDTAWKKMNKYMVDRSTFNQSFVRMTYNLARMAHCVYQDGDAIGSPDDLSWNRVHSLIIKPISPAA
[8]
  Km: 60 mM
  kcat: 0.00056 s⁻¹
[9]
  Km: 40 mM
  kcat: 1.6e-05 s⁻¹
